Assay results taken from US10189900B2, “Method for screening for autophagy activator or inhibitor” (KOREA FOOD RESEARCH INSTITUTE, priority 2014, dated 2019).

Columns and labels:
Ser30 of Beclin 1 = assay: Beclin 1 Ser30 phosphorylation after compound treatment (immunoprecipitation of endogenous Beclin 1, phospho-Ser30 antibody); format: cell-based; conditions: HEK293T cells treated for 0, 15, 30, 60 and 120 min; endogenous Beclin 1 isolated by immunoprecipitation; rabbit phospho-Ser30 antibody
Experimental: For co-immunoprecipitation, cell extracts were prepared in a buffer containing 40 mM HEPES, pH 7.4, 120 mM NaCl, 1 mM EDTA, 50 mM NaF, 1.5 mM Na3VO4, 10 mM Mb-glycerophosphate, 1% triton X-100, and protease inhibitor (Roche). Immunoprecipitated proteins were washed four times with a lysis buffer, and loaded onto 8% Tris-glycine gels. The resultant proteins were transferred onto polyvinylidene difluoride (PVDF) membranes (Bio-Rad, USA), and detected with western blotting detection reagents (Perkin Elmer, USA).
(§1) HEK293T cells were treated with rapamycin for predetermined periods of time (0, 15, 30, 60, and 120 min). Endogenous Beclin 1 was isolated by immunoprecipitation. The phosphorylation of Ser30 was analyzed using rabbit antibodies developed in the present invention. It was verified that Ser30 of Beclin 1 was phosphorylated by rapamycin (FIG. 5). Rapamycin increases the activity of ULK1.
as §1, with “torin” for “rapamycin”, “6).” for “5). Rapamycin increases the activity of ULK1.”

[1] = molecular target: myc-tagged Beclin 1, Q14457
Chain of myc-tagged Beclin 1, Q14457 (Q14457 whole entry, looked up): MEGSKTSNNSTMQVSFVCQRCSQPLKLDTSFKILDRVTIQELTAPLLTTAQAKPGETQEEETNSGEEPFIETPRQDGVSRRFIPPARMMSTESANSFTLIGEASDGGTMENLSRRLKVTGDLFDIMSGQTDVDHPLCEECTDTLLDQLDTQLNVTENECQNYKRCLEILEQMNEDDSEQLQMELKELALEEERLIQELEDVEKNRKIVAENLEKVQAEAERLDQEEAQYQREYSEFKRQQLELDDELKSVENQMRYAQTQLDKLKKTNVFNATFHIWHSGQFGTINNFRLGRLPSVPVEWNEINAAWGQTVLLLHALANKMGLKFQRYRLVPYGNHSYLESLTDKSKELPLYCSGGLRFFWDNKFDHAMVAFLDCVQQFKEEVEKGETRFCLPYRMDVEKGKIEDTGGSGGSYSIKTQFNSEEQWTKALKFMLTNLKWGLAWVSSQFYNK

[2] = molecular target: Recombinant Beclin 1 isolated from E. coli, Q14457
Chain of Recombinant Beclin 1 isolated from E. coli, Q14457 (Q14457 whole entry, looked up): as above

| Molecule | band shift on SDS-PAGE (western blot) [1] | incorporation of 32P into Beclin 1 (in vitro kinase reaction, autoradiogram) [2] | other results |
| --- | --- | --- | --- |
| torin |  |  | phosphorylation of Ser30 of Beclin 1 (Ser30 of Beclin 1): phosphorylated |
| HA-tagged ULK1 wild type (protein) MEPGRGGTETVGKFEFSRKDLIGHGAFAVVFKGRHREKHDLEVAVKCINKKNLAKSQTLLGKEIKILKELKHENIVALYDFQEMANSVYLVMEYCNGGDLADYLHAMRTLSEDTIRLFLQQIAGAMRLLHSKGIIHRDLKPQNILLSNPAGRRANPNSIRVKIADFGFARYLQSNMMAATLCGSPMYMAPEVIMSQHYDGKADLWSIGTIVYQCLTGKAPFQASSPQDLRLFYEKNKTLVPTIPRETSAPLRQLLLALLQRNHKDRMDFDEFFHHPFLDASPSVRKSPPVPVPSYPSSGSGSSSSSSSTSHLASPPSLGEMQQLQKTLASPADTAGFLHSSRDSGGSKDSSCDTDDFVMVPAQFPGDLVAEAPSAKPPPDSLMCSGSSLVASAGLESHGRTPSPSPPCSSSPSPSGRAGPFSSSRCGASVPIPVPTQVQNYQRIERNLQSPTQFQTPRSSAIRRSGSTSPLGFARASPSPPAHAEHGGVLARKMSLGGGRPYTPSPQVGTIPERPGWSGTPSPQGAEMRGGRSPRPGSSAPEHSPRTSGLGCRLHSAPNLSDLHVVRPKLPKPPTDPLGAVFSPPQASPPQPSHGLQSCRNLRGSPKLPDFLQRNPLPPILGSPTKAVPSFDFPKTPSSQNLLALLARQGVVMTPPRNRTLPDLSEVGPFHGQPLGPGLRPGEDPKGPFGRSFSTSRLTDLLLKAAFGTQAPDPGSTESLQEKPMEIAPSAGFGGSLHPGARAGGTSSPSPVVFTVGSPPSGSTPPQGPRTRMFSAGPTGSASSSARHLVPGPCSEAPAPELPAPGHGCSFADPITANLEGAVTFEAPDLPEETLMEQEHTEILRGLRFTLLFVQHVLEIAALKGSASEAAGGPEYQLQESVVADQISLLSREWGFAEQLVLYLKVAELLSSGLQSAIDQIRAGKLCLSSTVKQVVRRLNELYKASVVSCQGLSLRLQRFFLDKQRLLDRIHSITAERLIFSHAVQMVQSAALDEMFQHREGCVPRYHKALLLLEGLQHMLSDQADIENVTKCKLCIERRLSALLTGICA | Beclin 1 co-expressed together with ULK1 showed band shift |  |  |
| myc-tagged ULK1 wild type (protein) MEPGRGGTETVGKFEFSRKDLIGHGAFAVVFKGRHREKHDLEVAVKCINKKNLAKSQTLLGKEIKILKELKHENIVALYDFQEMANSVYLVMEYCNGGDLADYLHAMRTLSEDTIRLFLQQIAGAMRLLHSKGIIHRDLKPQNILLSNPAGRRANPNSIRVKIADFGFARYLQSNMMAATLCGSPMYMAPEVIMSQHYDGKADLWSIGTIVYQCLTGKAPFQASSPQDLRLFYEKNKTLVPTIPRETSAPLRQLLLALLQRNHKDRMDFDEFFHHPFLDASPSVRKSPPVPVPSYPSSGSGSSSSSSSTSHLASPPSLGEMQQLQKTLASPADTAGFLHSSRDSGGSKDSSCDTDDFVMVPAQFPGDLVAEAPSAKPPPDSLMCSGSSLVASAGLESHGRTPSPSPPCSSSPSPSGRAGPFSSSRCGASVPIPVPTQVQNYQRIERNLQSPTQFQTPRSSAIRRSGSTSPLGFARASPSPPAHAEHGGVLARKMSLGGGRPYTPSPQVGTIPERPGWSGTPSPQGAEMRGGRSPRPGSSAPEHSPRTSGLGCRLHSAPNLSDLHVVRPKLPKPPTDPLGAVFSPPQASPPQPSHGLQSCRNLRGSPKLPDFLQRNPLPPILGSPTKAVPSFDFPKTPSSQNLLALLARQGVVMTPPRNRTLPDLSEVGPFHGQPLGPGLRPGEDPKGPFGRSFSTSRLTDLLLKAAFGTQAPDPGSTESLQEKPMEIAPSAGFGGSLHPGARAGGTSSPSPVVFTVGSPPSGSTPPQGPRTRMFSAGPTGSASSSARHLVPGPCSEAPAPELPAPGHGCSFADPITANLEGAVTFEAPDLPEETLMEQEHTEILRGLRFTLLFVQHVLEIAALKGSASEAAGGPEYQLQESVVADQISLLSREWGFAEQLVLYLKVAELLSSGLQSAIDQIRAGKLCLSSTVKQVVRRLNELYKASVVSCQGLSLRLQRFFLDKQRLLDRIHSITAERLIFSHAVQMVQSAALDEMFQHREGCVPRYHKALLLLEGLQHMLSDQADIENVTKCKLCIERRLSALLTGICA |  | The ULK1 wild type phosphorylates Beclin 1 |  |
| myc-tagged ULK1 KD (M92) mutant (protein) MEPGRGGTETVGKFEFSRKDLIGHGAFAVVFKGRHREKHDLEVAVKCINKKNLAKSQTLLGKEIKILKELKHENIVALYDFQEMANSVYLVAEYCNGGDLADYLHAMRTLSEDTIRLFLQQIAGAMRLLHSKGIIHRDLKPQNILLSNPAGRRANPNSIRVKIADFGFARYLQSNMMAATLCGSPMYMAPEVIMSQHYDGKADLWSIGTIVYQCLTGKAPFQASSPQDLRLFYEKNKTLVPTIPRETSAPLRQLLLALLQRNHKDRMDFDEFFHHPFLDASPSVRKSPPVPVPSYPSSGSGSSSSSSSTSHLASPPSLGEMQQLQKTLASPADTAGFLHSSRDSGGSKDSSCDTDDFVMVPAQFPGDLVAEAPSAKPPPDSLMCSGSSLVASAGLESHGRTPSPSPPCSSSPSPSGRAGPFSSSRCGASVPIPVPTQVQNYQRIERNLQSPTQFQTPRSSAIRRSGSTSPLGFARASPSPPAHAEHGGVLARKMSLGGGRPYTPSPQVGTIPERPGWSGTPSPQGAEMRGGRSPRPGSSAPEHSPRTSGLGCRLHSAPNLSDLHVVRPKLPKPPTDPLGAVFSPPQASPPQPSHGLQSCRNLRGSPKLPDFLQRNPLPPILGSPTKAVPSFDFPKTPSSQNLLALLARQGVVMTPPRNRTLPDLSEVGPFHGQPLGPGLRPGEDPKGPFGRSFSTSRLTDLLLKAAFGTQAPDPGSTESLQEKPMEIAPSAGFGGSLHPGARAGGTSSPSPVVFTVGSPPSGSTPPQGPRTRMFSAGPTGSASSSARHLVPGPCSEAPAPELPAPGHGCSFADPITANLEGAVTFEAPDLPEETLMEQEHTEILRGLRFTLLFVQHVLEIAALKGSASEAAGGPEYQLQESVVADQISLLSREWGFAEQLVLYLKVAELLSSGLQSAIDQIRAGKLCLSSTVKQVVRRLNELYKASVVSCQGLSLRLQRFFLDKQRLLDRIHSITAERLIFSHAVQMVQSAALDEMFQHREGCVPRYHKALLLLEGLQHMLSDQADIENVTKCKLCIERRLSALLTGICA |  | KD mutant-added Beclin 1 was not phosphorylated |  |
| HA-tagged ULK1 M92A KD (kinase dead) mutant (protein) MEPGRGGTETVGKFEFSRKDLIGHGAFAVVFKGRHREKHDLEVAVKCINKKNLAKSQTLLGKEIKILKELKHENIVALYDFQEMANSVYLVAEYCNGGDLADYLHAMRTLSEDTIRLFLQQIAGAMRLLHSKGIIHRDLKPQNILLSNPAGRRANPNSIRVKIADFGFARYLQSNMMAATLCGSPMYMAPEVIMSQHYDGKADLWSIGTIVYQCLTGKAPFQASSPQDLRLFYEKNKTLVPTIPRETSAPLRQLLLALLQRNHKDRMDFDEFFHHPFLDASPSVRKSPPVPVPSYPSSGSGSSSSSSSTSHLASPPSLGEMQQLQKTLASPADTAGFLHSSRDSGGSKDSSCDTDDFVMVPAQFPGDLVAEAPSAKPPPDSLMCSGSSLVASAGLESHGRTPSPSPPCSSSPSPSGRAGPFSSSRCGASVPIPVPTQVQNYQRIERNLQSPTQFQTPRSSAIRRSGSTSPLGFARASPSPPAHAEHGGVLARKMSLGGGRPYTPSPQVGTIPERPGWSGTPSPQGAEMRGGRSPRPGSSAPEHSPRTSGLGCRLHSAPNLSDLHVVRPKLPKPPTDPLGAVFSPPQASPPQPSHGLQSCRNLRGSPKLPDFLQRNPLPPILGSPTKAVPSFDFPKTPSSQNLLALLARQGVVMTPPRNRTLPDLSEVGPFHGQPLGPGLRPGEDPKGPFGRSFSTSRLTDLLLKAAFGTQAPDPGSTESLQEKPMEIAPSAGFGGSLHPGARAGGTSSPSPVVFTVGSPPSGSTPPQGPRTRMFSAGPTGSASSSARHLVPGPCSEAPAPELPAPGHGCSFADPITANLEGAVTFEAPDLPEETLMEQEHTEILRGLRFTLLFVQHVLEIAALKGSASEAAGGPEYQLQESVVADQISLLSREWGFAEQLVLYLKVAELLSSGLQSAIDQIRAGKLCLSSTVKQVVRRLNELYKASVVSCQGLSLRLQRFFLDKQRLLDRIHSITAERLIFSHAVQMVQSAALDEMFQHREGCVPRYHKALLLLEGLQHMLSDQADIENVTKCKLCIERRLSALLTGICA | Beclin 1 co-expressed together with ULK1 M92A KD showed no band shift |  |  |
